Experiment [1] deals with T1, Thymic stromal lymphopoietin receptor (TSLPR) (human (endogenous in primary keratinocytes)) (UniProt Q9HC73).
T1 sequence: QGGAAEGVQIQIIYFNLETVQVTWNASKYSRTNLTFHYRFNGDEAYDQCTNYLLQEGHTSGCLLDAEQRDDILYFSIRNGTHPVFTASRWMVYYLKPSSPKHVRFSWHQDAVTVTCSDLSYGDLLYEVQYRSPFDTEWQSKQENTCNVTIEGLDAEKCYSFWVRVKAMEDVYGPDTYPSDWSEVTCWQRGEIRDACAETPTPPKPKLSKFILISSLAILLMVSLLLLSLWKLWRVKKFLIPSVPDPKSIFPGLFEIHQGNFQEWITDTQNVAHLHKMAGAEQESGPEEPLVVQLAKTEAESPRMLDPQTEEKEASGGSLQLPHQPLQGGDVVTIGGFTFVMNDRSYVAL

The target in experiment [2] is T1, Thymic stromal lymphopoietin receptor (TSLPR) (human (endogenous in primary keratinocytes)). The source holds these as a separate data set.

A value given as a limit tells only on which side of the number the result lay.

Regarding “Thymic stromal lymphopoietin (TSLP), human recombinant (from UniProt Q969D9 29-159) (ligand)”, the inhibition by the small molecule BP79 of TSLP-induced IL-4/IL-13 expression in primary human CD4+ T cells (ELISA, 36 h), dose-response, at 10 µM and 20 µM in experiment [1] is greater than 80%. In experiment [2], this substance came in with an inhibition by the small molecule BP79 of TSLP-induced IL-4 release from HuT78 cells (ELISA, 36 h), concentration series up to 20 µM of 60% and an inhibition by the small molecule BP79 of TSLP-induced IL-13 release from HuT78 cells (ELISA, 36 h), concentration series up to 20 µM of 80%.

Source of the values: article PMC11250841.
